Assay [1] addresses T1, recombinant human CD47 extracellular domain (ECD), His-tagged, dimer (human, UniProt Q08722 19-141).
T1 construct: Dimeric fraction of the same His-tagged ECD; also called His-tagged CD47-ECD dimer protein
Kind of assay: MSD; CD47-ECD dimer binding to captured SIRP alpha-Fc, mAb 10 µg/ml.

Assay [2] addresses T2, recombinant human CD47 extracellular domain (ECD), His-tagged, monomer (human, UniProt Q08722 19-141).
T2 construct: C-terminal 6xHis tag; monomeric fraction from Superdex 200; also called human CD47 ECD; CD47-ECD monomer
Kind of assay: ProteOn SPR; mAb captured, ECD monomer as analyte.

Assay [3] concerns the target T3, Cyno CD47 ECD protein, His-tagged, monomer (cyno).
T3 construct: extracellular domain; also called cynomolgus CD47
Kind of assay: ProteOn SPR; mAb captured, ECD monomer as analyte.

Assay [4] deals with T3, Cyno CD47 ECD protein, His-tagged, …. Kind of assay: ProteOn SPR; cyno KD / human KD.

B1: C47B229 (antibody, V domains shown)
VH: EVQLVQSGAEVKKPGESLKISCKGSGYSFDDAWIGWVRQMPGKGLEWMGIIYPGDSDTRYSPSFQGQVTISADKSISTAYLQWSSLKASDTAVYYCARVGRFASHQLDYWGQGTLVTVSS
VL: EIVLTQSPATLSLSPGERATLSCRASQSVNKALAWYQQKPGQAPRLLIYGASNRATGIPARFSGSGSGTDFTLTISSLEPEDFAVYYCQQGKGWPFTFGQGTKVEIK
notes: human IgG2sigma/kappa
Regarding B1, the “% SIRP alpha Inhibition” value in assay [1] stood at 16.1%. The Kd in assay [2] is 2.15 nM; in assay [3], 8.32 nM. For the same molecule, in assay [4], the “KD Ratio Cyno/Human” value was 3.9.

B2: C47B239 (antibody, V domains shown)
VH: EVQLVQSGAEVKKPGESLKISCKGSGYSFTSYWIGWVRQMPGKGLEWMGIIYPGDSDTRYSPSFQGQVTISADKSISTAYLQWSSLKASDTAMYYCARVGRFASHQLDYWGQGTLVTVSS
VL: EIVLTQSPATLSLSPGERATLSCRASQSVSNRLAWYQQKPGQAPRLLIYGASNRATGIPARFSGSGSGTDFTLTISSLEPEDFAVYYCQQGRSWPFTFGQGTKVEIK
notes: human IgG2sigma/kappa
For B2, the “% SIRP alpha Inhibition” value in assay [1] is 96.7%. Also, the Kd in assay [2] stood at 6.69 nM; in assay [3], 9.7 nM. Besides, the “KD Ratio Cyno/Human” value in assay [4] turned out to be 1.4.

B3: C47B231 (antibody, V domains shown)
VH: EVQLVQSGAEVKKPGESLKISCKGSGYSFTNYWIGWVRQMPGKGLEWMGIIYPGDSDTRYSPSFQGQVTISADKSISTAYLQWSSLKASDTAVYYCARVGRFASHQLDYWGQGTLVTVSS
VL: EIVLTQSPATLSLSPGERATLSCRASQSVNKALAWYQQKPGQAPRLLIYGASNRATGIPARFSGSGSGTDFTLTISSLEPEDFAVYYCQQGKGWPFTFGQGTKVEIK
notes: human IgG2sigma/kappa
In the case of B3, the “% SIRP alpha Inhibition” value in assay [1] is 83.7%. Also, the Kd in assay [2] was found to be 11.3 nM; in assay [3], 12.3 nM. Also, in assay [4], the “KD Ratio Cyno/Human” value stood at 1.1.

B4: C47B242 (antibody, V domains shown)
VH: EVQLVQSGAEVKKPGESLKISCKGSGYSFTDSWIGWVRQMPGKGLEWMGIIYPGDSDTRYSPSFQGQVTISADKSISTAYLQWSSLKASDTAVYYCARVGRFASHQLDYWGQGTLVTVSS
VL: EIVLTQSPATLSLSPGERATLSCRASQSVSNRLAWYQQKPGQAPRLLIYGASNRATGIPARFSGSGSGTDFTLTISSLEPEDFAVYYCQQGRSWPFTFGQGTKVEIK
notes: human IgG2sigma/kappa
Consider B4, for which the “% SIRP alpha Inhibition” value in assay [1] was found to be 99.1%. For the same molecule, the values for the Kd in assay [2] and in assay [3] were 3.47 nM and 3.46 nM, respectively. The “KD Ratio Cyno/Human” value in assay [4] is 1.

B5: C47B235 (antibody, V domains shown)
VH: EVQLVQSGAEVKKPGESLKISCKGSGYSFDDYWISWVRQMPGKGLEWMGIIYPGDSDTRYSPSFQGQVTISADKSISTAYLQWSSLKASDTAVYYCARVGRFASHQLDYWGQGTLVTVSS
VL: EIVLTQSPATLSLSPGERATLSCRASQSVNKALAWYQQKPGQAPRLLIYGASNRATGIPARFSGSGSGTDFTLTISSLEPEDFAVYYCQQGKGWPFTFGQGTKVEIK
notes: human IgG2sigma/kappa
B5: in assay [1], the “% SIRP alpha Inhibition” value was 99.9%. Also, the Kd worked out at 2.35 nM in assay [2] and 3.06 nM in assay [3]. In addition, the “KD Ratio Cyno/Human” value in assay [4] stood at 1.3.

B6: C47B243 (antibody, V domains shown)
VH: EVQLVQSGAEVKKPGESLKISCKGSGYSFTDYWIGWVRQMPGKGLEWMGIIYPGDSDTRYSPSFQGQVTISADKSISTAYLQWSSLKASDTAVYYCARVGRFASHQLDYWGQGTLVTVSS
VL: EIVLTQSPATLSLSPGERATLSCRASQSVSNRLAWYQQKPGQAPRLLIYGASNRATGIPARFSGSGSGTDFTLTISSLEPEDFAVYYCQQGRSWPFTFGQGTKVEIK
notes: human IgG2sigma/kappa
Consider B6, for which the “% SIRP alpha Inhibition” value in assay [1] was 99.8%. In addition, the figures for the Kd in assay [2] and in assay [3] were 2.02 nM and 2.08 nM, respectively. In assay [4], the “KD Ratio Cyno/Human” value is 1.

B7: C47B232 (antibody, V domains shown)
VH: EVQLVQSGAEVKKPGESLKISCKGSGYSFTNYWIGWVRQMPGKGLEWMGIIYPGDSDTRYSPSFQGQVTISADKSISTAYLQWSSLKASDTAVYYCARVGRFASHQLDYWGQGTLVTVSS
VL: EIVLTQSPATLSLSPGERATLSCRASQSVNNRLAWYQQKPGQAPRLLIHWASTRAIGIPARFSGSGSGTDFTLTISSLEPEDFAVYYCQQGASWPFTFGQGTKVEIK
notes: human IgG2sigma/kappa
As to B7, the “% SIRP alpha Inhibition” value in assay [1] is 99.6%. Further, the Kd in assay [2] was 2.8 nM; in assay [3] it was 2.42 nM. Besides, in assay [4], the “KD Ratio Cyno/Human” value worked out at 0.9.

B8: C47B234 (antibody, V domains shown)
VH: EVQLVQSGAEVKKPGESLKISCKGSGYSFDNYWIGWVRQMPGKGLEWMGIIYPGDSDTRYSPSFQGQVTISADKSISTAYLQWSSLKASDTAVYYCARVGRFASHQLDYWGQGTLVTVSS
VL: EIVLTQSPATLSLSPGERATLSCRASQSVNKALAWYQQKPGQAPRLLIYGASNRATGIPARFSGSGSGTDFTLTISSLEPEDFAVYYCQQGKGWPFTFGQGTKVEIK
notes: human IgG2sigma/kappa
Regarding B8, the “% SIRP alpha Inhibition” value in assay [1] is 86.6%. For the same molecule, the figures for the Kd in assay [2] and in assay [3] were 4.49 nM and 7.93 nM, respectively. In assay [4], the “KD Ratio Cyno/Human” value was found to be 1.8.

B9: C47B230 (antibody, V domains shown)
VH: EVQLVQSGAEVKKPGESLKISCKGSGYSFTDDWIGWVRQMPGKGLEWMGIIYPGDSDTRYSPSFQGQVTISADKSISTAYLQWSSLKASDTAVYYCARVGRFASHQLDYWGQGTLVTVSS
VL: EIVLTQSPATLSLSPGERATLSCRASQSVNKALAWYQQKPGQAPRLLIYGASNRATGIPARFSGSGSGTDFTLTISSLEPEDFAVYYCQQGKGWPFTFGQGTKVEIK
notes: human IgG2sigma/kappa
For the molecule B9, the “% SIRP alpha Inhibition” value in assay [1] came out at 28.4%. For the same molecule, the results for the Kd in assay [2] and in assay [3] were 1.99 nM and 7.28 nM, respectively. Also, the “KD Ratio Cyno/Human” value in assay [4] stood at 3.7.

B10: C47B240 (antibody, V domains shown)
VH: EVQLVQSGAEVKKPGESLKISCKGSGYSFTSYWIGWVRQMPGKGLEWMGIIYPGDSDTRYSPSFQGQVTISADKSISTAYLQWSSLKASDTAMYYCARVGRFASHQLDYWGQGTLVTVSS
VL: EIVLTQSPATLSLSPGERATLSCRASQSVSNRQAWYQQKPGQAPRLLIHSASNRATGIPARFSGSGSGTDFTLTISSLEPEDFAVYYCQQGRSWPFTFGQGTKVEIK
notes: human IgG2sigma/kappa
For the molecule B10, the “% SIRP alpha Inhibition” value in assay [1] was determined as 93%. For the same molecule, the Kd in assay [2] came out at 8.59 nM; in assay [3], 9.23 nM. For the same molecule, in assay [4], the “KD Ratio Cyno/Human” value was found to be 1.1.

B11: C47B244 (antibody, V domains shown)
VH: EVQLVQSGAEVKKPGESLKISCKGSGYSFDDYWIGWVRQMPGKGLEWMGIIYPGDSDTRYSPSFQGQVTISADKSISTAYLQWSSLKASDTAVYYCARVGRFASHQLDYWGQGTLVTVSS
VL: EIVLTQSPATLSLSPGERATLSCRASQSVSNRLAWYQQKPGQAPRLLIYGASNRATGIPARFSGSGSGTDFTLTISSLEPEDFAVYYCQQGRSWPFTFGQGTKVEIK
notes: human IgG2sigma/kappa
B11: in assay [1], the “% SIRP alpha Inhibition” value is 99.8%. For the same molecule, the Kd came to 2.12 nM in assay [2] and 1.55 nM in assay [3]. For the same molecule, the “KD Ratio Cyno/Human” value in assay [4] came out at 0.7.

B12: C47B241 (antibody, V domains shown)
VH: EVQLVQSGAEVKKPGESLKISCKGSGYSFDDSWIGWVRQMPGKGLEWMGIIYPGDSDTRYSPSFQGQVTISADKSISTAYLQWSSLKASDTAVYYCARVGRFASHQLDYWGQGTLVTVSS
VL: EIVLTQSPATLSLSPGERATLSCRASQSVSNRLAWYQQKPGQAPRLLIYGASNRATGIPARFSGSGSGTDFTLTISSLEPEDFAVYYCQQGRSWPFTFGQGTKVEIK
notes: human IgG2sigma/kappa
As to B12, the “% SIRP alpha Inhibition” value in assay [1] was determined as 99.8%. Also, the Kd was 2.62 nM in assay [2] and 2.03 nM in assay [3]. In addition, the “KD Ratio Cyno/Human” value in assay [4] came out at 0.8.

B13: C47B233 (antibody, V domains shown)
VH: EVQLVQSGAEVKKPGESLKISCKGSGYSFTNYWIGWVRQMPGKGLEWMGIIYPGDSDTRYSPSFQGQVTISADKSISTAYLQWSSLKASDTAVYYCARVGRFASHQLDYWGQGTLVTVSS
VL: EIVLTQSPATLSLSPGERATLSCRASQSVGSRLAWYQQKPGQAPRLLIYWASTRATGIPARFSGSGSGTDFTLTISSLEPEDFAVYYCQQGAYWPFTFGQGTKVEIK
notes: human IgG2sigma/kappa
Consider B13, for which the “% SIRP alpha Inhibition” value in assay [1] was 98.4%. Also, the dissociation constant Kd in assay [2] amounted to 3.9 nM; in assay [3], 3.02 nM. Moreover, the “KD Ratio Cyno/Human” value in assay [4] turned out to be 0.8.

B14: C47B238 (antibody, V domains shown)
VH: EVQLVQSGAEVKKPGESLKISCKGSGYSFTSYWIGWVRQMPGKGLEWMGIIYPGDSDTRYSPSFQGQVTISADKSISTAYLQWSSLKASDTAMYYCARVGRFASHQLDYWGQGTLVTVSS
VL: EIVLTQSPATLSLSPGERATLSCRASQSVGSRLAWYQQKPGQAPRLLIYWASTRATGIPARFSGSGSGTDFTLTISSLEPEDFAVYYCQQGAYWPFTFGQGTKVEIK
notes: human IgG2sigma/kappa
For the molecule B14, in assay [1], the “% SIRP alpha Inhibition” value came to 99.1%. For the same molecule, the Kd in assay [2] was found to be 3.53 nM; in assay [3], 3.73 nM. Also, the “KD Ratio Cyno/Human” value in assay [4] is 1.1.

B15: C47B236 (antibody, V domains shown)
VH: EVQLVQSGAEVKKPGESLKISCKGSGYSFKDDWIGWVRQMPGKGLEWMGIIYPGDSDTRYSPSFQGQVTISADKSISTAYLQWSSLKASDTAVYYCARVGRFASHQLDYWGQGTLVTVSS
VL: EIVLTQSPATLSLSPGERATLSCRASQSVNKALAWYQQKPGQAPRLLIYGASNRATGIPARFSGSGSGTDFTLTISSLEPEDFAVYYCQQGKGWPFTFGQGTKVEIK
notes: human IgG2sigma/kappa
B15: the “% SIRP alpha Inhibition” value in assay [1] came out at 9.8%. In addition, the Kd was determined as 2.92 nM in assay [2] and 14.6 nM in assay [3]. In addition, the “KD Ratio Cyno/Human” value in assay [4] was 5.

B16: C47B237 (antibody, V domains shown)
VH: EVQLVQSGAEVKKPGESLKISCKGSGYSFTSYWIGWVRQMPGKGLEWMGIIYPGDSDTRYSPSFQGQVTISADKSISTAYLQWSSLKASDTAMYYCARVGRFASHQLDYWGQGTLVTVSS
VL: EIVLTQSPATLSLSPGERATLSCRASQSVNNRLAWYQQKPGQAPRLLIHWASTRAIGIPARFSGSGSGTDFTLTISSLEPEDFAVYYCQQGASWPFTFGQGTKVEIK
notes: human IgG2sigma/kappa
In the case of B16, the “% SIRP alpha Inhibition” value in assay [1] came to 97.9%. Further, the Kd is 2.57 nM in assay [2] and 3.51 nM in assay [3]. Also, the “KD Ratio Cyno/Human” value in assay [4] was determined as 1.4.

These data come from US20180250395A1 (Janssen / Centocor, published 2018).
